Drawing on publication PMC3584063, “Biochemical and Functional Studies on the Burkholderia cepacia Complex bceN Gene, Encoding a GDP-D-Mannose 4,6-Dehydratase” (PLoS ONE, 2013), this text covers stoichiometry N and Ki for 2 compounds.

The target of assay [1] is 6×His-tagged BceN protein of Burkholderia cenocepacia J2315 (GDP-D-mannose 4,6-dehydratase) (Burkholderia cenocepacia J2315). As to the kind of experiment: native gel or EMSA; discontinuous native PAGE, 8% polyacrylamide, 200 mM Tris-Cl pH 8.8, 4°C, 100 V, 2 h; 6 µg purified 6×His-tagged BceN; aliquot with GMD activity; mass standards catalase, aldolase, BSA, ovalbumin. (In general: Mobility shift assays separate free from complexed probe on a gel.)

For assay [2], the target named is T1, BceN (GDP-D-mannose 4,6-dehydratase) (Burkholderia cenocepacia, UniProt B4EFL2).
T1 construct: gene gca; full-length, C-terminally 6×His-tagged BceN, tetramer
As to the kind of experiment: 1H NMR enzyme kinetics with purified protein (substrate turnover and substrate inhibition), […]°C, pH […]. The format is biochemical.

For the compound “6×His-tagged BceN protein of Burkholderia cenocepacia J2315 (GDP-D-mannose 4,6-dehydratase) (enzyme)”, the stoichiometry N in assay [1] was 4.

For `Nc1nc2c(ncn2[C@@H]2O[C@H](COP(=O)(O)OP(=O)(O)O[C@H]3O[C@H](CO)[C@@H](O)[C@H](O)[C@@H]3O)[C@@H](O)[C@H]2O)c(=O)[nH]1` [A, GDP-D-mannose], the Ki in assay [2] turned out to be 2910 ± 350 µM.

By stoichiometry N is commonly meant the number of molecules, sites or subunits per partner or assembly.
